Measured values as given in paper PMC5722948, “A tyrosinase, mTyr-CNK, that is functionally available as a monophenol monooxygenase” (Scientific Reports, 2017).

B1: cTyr-CNK (Candidatus Nitrosopumilus koreensis AR1) (protein)
chain: MTRKNAKDFLPDERQRYCNALLTLKQTIEPGHTLSKYDEFVAIHYGVTRRLRNGIPIGDGAHFVPGFLAWHREYLNRFEKAIRTVDSTLSLPYWNWSSGDDTDTTEIFTDDFMGPPGDPNNGNKITSGYFVENNWEVHSELDGGNNGSVLVRDSTLLSSSKLSQVSGYGELAMDAVNGDNDFDSFLPGLEGPHGSIHMWIGGHMTSMTSPNDPIFFLHHANIDRLWSKWQELHPGPENYNPNNDGSYGSRLNDRMWPWDGSEDTTTTRTGTATGISLQGLLPTFSDYDIVTPR
notes: core tyrosinase domain, residues 1-293, C-terminal 294-415 removed; His6 tag (pET23b+), E. coli BL21(DE3), Ni-NTA purified
B2: mTyr-CNK (Candidatus Nitrosopumilus koreensis AR1) (protein)
chain: MTRKNAKDFLPDERQRYCNALLTLKQTIEPGHTLSKYDEFVAIHYGVTRRLRNGIPIGDGAHFVPGFLAWHREYLNRFEKAIRTVDSTLSLPYWNWSSGDDTDTTEIFTDDFMGPPGDPNNGNKITSGYFVENNWEVHSELDGGNNGSVLVRDSTLLSSSKLSQVSGYGELAMDAVNGDNDFDSFLPGLEGPHGSIHMWIGGHMTSMTSPNDPIFFLHHANIDRLWSKWQELHPGPENYNPNNDGSYGSRLNDRMWPWDGSEDTTTTRTGTATGISLQGLLPTFSDYDIVTPRHVLDNNLTIP
notes: mature form, residues 1-303, C-terminal extension 304-415 removed; His6 tag (pET23b+), codon-optimized gene, E. coli BL21(DE3), Ni-NTA purified

How the values were obtained:
purified protein [1] = substrate: N[C@@H](Cc1ccc(O)cc1)C(=O)O; test: purified protein; format: biochemical, Candidatus Nitrosopumilus koreensis; conditions: monophenolase
purified protein [2] = substrate: N[C@@H](Cc1ccc(O)c(O)c1)C(=O)O; test: purified protein; format: biochemical, Candidatus Nitrosopumilus koreensis; conditions: diphenolase
[3] = 50 mM Tris pH 6.0, 0.01 mM CuSO4, 20 °C, substrate range 0.025–0.0625 mM

Row | Protein | Km (purified protein [1]; pH 6, 20 °C) [µM] | kcat (purified protein [1]; pH 6, 20 °C) [s⁻¹] | Km (purified protein [2]; pH 6, 20 °C) [µM] | kcat (purified protein [2]; pH 6, 20 °C) [s⁻¹] | Km (purified protein [1]; [3]) [µM] | kcat (purified protein [1]; [3]) [s⁻¹] | kcat/Km (purified protein [1]; [3]) [M⁻¹ s⁻¹] | Km (purified protein [2]; [3]) [µM] | kcat (purified protein [2]; [3]) [s⁻¹] | kcat/Km (purified protein [2]; [3]) [M⁻¹ s⁻¹]
1 | B1 | 1600 ± 650 | 2.13 ± 0.79 | 560 ± 40 | 2.05 ± 0.10 | – | – | – | – | – | –
2 | B2 | – | – | – | – | 2120 ± 140 | 3.33 ± 0.18 | 1570 ± 10 | 490 ± 40 | 0.87 ± 0.07 | 1810 ± 260
